According to patent US20150258192A1, “COMPOSITIONS AND METHODS FOR PREVENTING OR TREATING CHRONIC LUNG ALLOGRAFT DYSFUNCTION (CLAD) AND IDIOPATHIC PULMONARY FIBROSIS (IPF)” (priority 2014, published 2015):
No end group written: not given here.

Assays:
Test in all cases: Kinase Profiling Assay
Format in all cases: biochemical
Details in all cases: peptide 100 μM
DAPK2(h) = DAPK2(h) (Homo sapiens, UniProt Q9UIK4)
Method in brief: (§1)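 Duplicate wells; [radiolabeled] ATP phosphate onto cationic substrate; filter capture (negatively charged membrane); scintillation count; % of 100% activity control. Selectivity screen of MK2 peptide inhibitors, 266 human kinases.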

DYRK2(h) = biological target: T1, DYRK2(h) (Homo sapiens, UniProt Q92630)
T1 sequence (Q92630 1-601): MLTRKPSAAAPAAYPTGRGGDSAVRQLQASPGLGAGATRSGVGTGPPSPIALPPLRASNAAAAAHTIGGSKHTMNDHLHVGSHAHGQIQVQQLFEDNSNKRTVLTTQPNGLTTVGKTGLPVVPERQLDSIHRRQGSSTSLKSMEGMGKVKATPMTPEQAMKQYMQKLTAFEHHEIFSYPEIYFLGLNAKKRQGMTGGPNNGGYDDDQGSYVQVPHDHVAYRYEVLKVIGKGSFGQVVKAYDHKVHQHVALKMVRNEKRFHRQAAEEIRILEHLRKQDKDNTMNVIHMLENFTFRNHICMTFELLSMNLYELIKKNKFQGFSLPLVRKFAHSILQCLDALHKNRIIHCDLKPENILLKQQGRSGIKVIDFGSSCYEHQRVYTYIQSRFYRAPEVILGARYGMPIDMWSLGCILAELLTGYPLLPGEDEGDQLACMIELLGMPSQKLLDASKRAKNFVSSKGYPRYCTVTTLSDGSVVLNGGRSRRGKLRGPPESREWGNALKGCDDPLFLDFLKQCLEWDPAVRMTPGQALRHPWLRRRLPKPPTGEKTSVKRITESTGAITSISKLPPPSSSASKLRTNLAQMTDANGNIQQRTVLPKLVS
Method in brief: as §1

EphA5(h) = EphA5(h) (Homo sapiens, UniProt P54756)
Chain of EphA5(h) (P54756 25-1037): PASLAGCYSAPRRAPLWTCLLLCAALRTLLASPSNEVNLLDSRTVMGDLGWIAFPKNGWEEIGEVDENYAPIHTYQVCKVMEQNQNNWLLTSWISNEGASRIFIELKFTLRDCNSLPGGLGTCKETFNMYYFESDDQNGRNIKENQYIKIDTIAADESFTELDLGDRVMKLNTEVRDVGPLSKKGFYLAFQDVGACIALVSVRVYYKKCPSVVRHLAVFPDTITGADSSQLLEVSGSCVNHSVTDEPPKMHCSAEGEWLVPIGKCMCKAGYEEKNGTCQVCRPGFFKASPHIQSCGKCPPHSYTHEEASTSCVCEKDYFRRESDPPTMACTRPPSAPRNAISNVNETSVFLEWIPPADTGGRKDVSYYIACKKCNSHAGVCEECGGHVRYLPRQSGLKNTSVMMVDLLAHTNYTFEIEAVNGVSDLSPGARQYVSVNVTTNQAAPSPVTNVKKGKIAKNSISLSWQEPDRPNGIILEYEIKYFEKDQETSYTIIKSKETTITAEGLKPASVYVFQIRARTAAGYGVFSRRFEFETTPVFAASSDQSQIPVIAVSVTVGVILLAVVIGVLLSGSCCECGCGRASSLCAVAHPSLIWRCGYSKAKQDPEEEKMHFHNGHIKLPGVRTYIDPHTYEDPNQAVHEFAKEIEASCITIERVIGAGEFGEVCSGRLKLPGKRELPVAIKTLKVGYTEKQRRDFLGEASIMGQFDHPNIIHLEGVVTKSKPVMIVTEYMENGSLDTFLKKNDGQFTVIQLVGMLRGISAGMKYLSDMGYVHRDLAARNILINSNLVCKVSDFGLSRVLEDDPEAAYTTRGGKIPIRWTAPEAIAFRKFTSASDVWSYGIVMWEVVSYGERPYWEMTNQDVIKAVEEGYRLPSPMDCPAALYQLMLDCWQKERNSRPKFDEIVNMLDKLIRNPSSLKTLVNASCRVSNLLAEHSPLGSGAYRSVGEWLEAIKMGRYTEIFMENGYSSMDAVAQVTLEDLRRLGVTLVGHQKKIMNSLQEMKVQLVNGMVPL
Method in brief: as §1

Hck(h) activated = biological target: T2, Hck(h) activated (Homo sapiens, UniProt P08631)
T2 construct: purchased Millipore
T2 sequence (P08631 whole entry): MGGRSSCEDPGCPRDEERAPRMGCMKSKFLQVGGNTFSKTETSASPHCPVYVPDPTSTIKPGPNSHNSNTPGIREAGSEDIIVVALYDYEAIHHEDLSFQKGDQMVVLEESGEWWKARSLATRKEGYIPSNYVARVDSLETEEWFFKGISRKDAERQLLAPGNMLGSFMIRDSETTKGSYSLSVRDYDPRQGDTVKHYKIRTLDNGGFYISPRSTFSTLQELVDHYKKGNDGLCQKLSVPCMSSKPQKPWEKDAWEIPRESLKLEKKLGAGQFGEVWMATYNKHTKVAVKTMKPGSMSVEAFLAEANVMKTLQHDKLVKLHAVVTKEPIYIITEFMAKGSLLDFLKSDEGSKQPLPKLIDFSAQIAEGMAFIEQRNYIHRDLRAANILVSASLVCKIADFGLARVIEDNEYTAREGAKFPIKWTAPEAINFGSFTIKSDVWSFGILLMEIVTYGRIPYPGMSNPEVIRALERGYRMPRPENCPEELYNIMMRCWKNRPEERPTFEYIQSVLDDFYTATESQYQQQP
Method in brief: as §1

IR(h) = biological target: T3, IR(h) (Homo sapiens, UniProt P06213)
T3 construct: purchased Millipore
Method in brief: as §1

MuSK(h) = biological target: T4, MuSK(h) (Homo sapiens, UniProt O15146)
T4 construct: purchased Millipore
T4 sequence (O15146 24-869): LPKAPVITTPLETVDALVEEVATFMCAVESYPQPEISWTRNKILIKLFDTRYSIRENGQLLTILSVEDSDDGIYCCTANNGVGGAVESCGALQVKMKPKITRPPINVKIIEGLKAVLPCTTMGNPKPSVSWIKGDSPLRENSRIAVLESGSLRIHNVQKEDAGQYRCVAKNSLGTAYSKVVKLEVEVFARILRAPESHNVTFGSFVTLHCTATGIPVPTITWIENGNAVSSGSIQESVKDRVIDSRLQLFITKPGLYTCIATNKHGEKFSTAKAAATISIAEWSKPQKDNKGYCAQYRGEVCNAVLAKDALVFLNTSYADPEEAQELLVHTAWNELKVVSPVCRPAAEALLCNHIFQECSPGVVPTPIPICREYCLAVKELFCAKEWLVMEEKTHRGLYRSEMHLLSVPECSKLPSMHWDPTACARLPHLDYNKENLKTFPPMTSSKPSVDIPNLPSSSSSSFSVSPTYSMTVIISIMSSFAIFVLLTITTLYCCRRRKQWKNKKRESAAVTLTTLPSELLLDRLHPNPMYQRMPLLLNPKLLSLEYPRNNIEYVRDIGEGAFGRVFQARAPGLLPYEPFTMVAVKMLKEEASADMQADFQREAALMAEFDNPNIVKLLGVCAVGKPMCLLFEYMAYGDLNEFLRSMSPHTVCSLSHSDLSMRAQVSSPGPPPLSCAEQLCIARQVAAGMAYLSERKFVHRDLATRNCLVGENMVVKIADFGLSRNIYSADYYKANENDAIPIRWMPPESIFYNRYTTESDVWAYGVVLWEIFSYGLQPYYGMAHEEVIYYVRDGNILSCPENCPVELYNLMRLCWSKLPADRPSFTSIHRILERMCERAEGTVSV
Method in brief: as §1

Pim-3(h) = Pim-3(h) (Homo sapiens, UniProt Q86V86)
Method in brief: as §1

SAPK2a(T106M)(h) = biological target: T5, SAPK2a(T106M)(h) (Homo sapiens, UniProt Q16539, T106M)
T5 construct: purchased Millipore
T5 sequence (Q16539 whole entry T106M): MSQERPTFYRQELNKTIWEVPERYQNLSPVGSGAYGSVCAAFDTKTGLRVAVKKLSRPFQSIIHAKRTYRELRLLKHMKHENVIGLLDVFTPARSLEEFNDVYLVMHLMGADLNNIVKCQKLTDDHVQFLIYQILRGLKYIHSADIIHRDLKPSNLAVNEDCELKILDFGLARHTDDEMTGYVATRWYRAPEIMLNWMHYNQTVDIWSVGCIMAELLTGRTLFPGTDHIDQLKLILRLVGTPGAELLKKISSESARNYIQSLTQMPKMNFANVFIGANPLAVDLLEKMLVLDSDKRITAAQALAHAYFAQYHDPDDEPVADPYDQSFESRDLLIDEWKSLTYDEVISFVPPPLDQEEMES
Method in brief: as §1

TSSK2(h) = biological target: T6, TSSK2(h) (Homo sapiens, UniProt Q96PF2)
T6 sequence (Q96PF2 1-358): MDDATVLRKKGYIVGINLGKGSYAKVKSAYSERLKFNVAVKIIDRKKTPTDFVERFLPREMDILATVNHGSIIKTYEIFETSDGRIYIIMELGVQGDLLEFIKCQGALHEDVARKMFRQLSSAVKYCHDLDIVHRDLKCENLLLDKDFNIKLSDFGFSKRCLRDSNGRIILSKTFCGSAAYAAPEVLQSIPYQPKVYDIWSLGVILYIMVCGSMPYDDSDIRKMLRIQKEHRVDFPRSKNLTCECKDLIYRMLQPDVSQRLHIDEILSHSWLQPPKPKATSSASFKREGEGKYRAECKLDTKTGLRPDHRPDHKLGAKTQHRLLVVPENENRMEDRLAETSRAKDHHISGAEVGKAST
Method in brief: as §1

Chain of DAPK2(h) (Q9UIK4 whole entry): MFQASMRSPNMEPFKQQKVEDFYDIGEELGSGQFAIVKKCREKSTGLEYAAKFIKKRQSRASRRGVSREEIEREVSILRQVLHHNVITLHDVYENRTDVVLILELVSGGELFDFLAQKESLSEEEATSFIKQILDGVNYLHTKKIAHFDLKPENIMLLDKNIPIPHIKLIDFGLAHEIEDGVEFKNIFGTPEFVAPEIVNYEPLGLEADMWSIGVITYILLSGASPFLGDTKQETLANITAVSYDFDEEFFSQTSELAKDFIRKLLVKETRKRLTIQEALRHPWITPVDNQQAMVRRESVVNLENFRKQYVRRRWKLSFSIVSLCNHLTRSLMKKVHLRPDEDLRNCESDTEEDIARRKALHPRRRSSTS

Sequence: FAKLAARLYRKALARQLGVAA [MMI-0300]
- % activity (DAPK2(h)): 32%
- % activity (DYRK2(h)): 155%
- % activity (EphA5(h)): 18%
- % activity (Hck(h) activated): 82%
- % activity (IR(h)): 96%
- % activity (MuSK(h)): 93%
- % activity (Pim-3(h)): 80%
- % activity (SAPK2a(T106M)(h)): 97%
- % activity (TSSK2(h)): 98%

Sequence: HRRIKAWLKKIKALARQLGVAA (Mammal) [MMI-0500]
- % activity (DAPK2(h)): 3%
- % activity (DYRK2(h)): 127%
- % activity (EphA5(h)): 42%
- % activity (Hck(h) activated): 67%
- % activity (IR(h)): 95%
- % activity (MuSK(h)): 27%
- % activity (Pim-3(h)): 37%
- % activity (SAPK2a(T106M)(h)): 32%
- % activity (TSSK2(h)): 92%

Sequence: KAFAKLAARLYRKALARQLGVAA [MMI-0400]
- % activity (DAPK2(h)): 16%
- % activity (DYRK2(h)): 195%
- % activity (EphA5(h)): 24%
- % activity (Hck(h) activated): 81%
- % activity (IR(h)): 85%
- % activity (MuSK(h)): 93%
- % activity (Pim-3(h)): 80%
- % activity (SAPK2a(T106M)(h)): 99%
- % activity (TSSK2(h)): 94%

Sequence: YARAAARQARAKALARQLGVAA [MMI-0100]
- % activity (EphA5(h)): 110%
- % activity (MuSK(h)): 85%
- % activity (SAPK2a(T106M)(h)): 101%

Sequence: YARAAARQARAKALNRQLGVA (Mammal) [MMI-0200]
- % activity (DAPK2(h)): 92%
- % activity (DYRK2(h)): 142%
- % activity (EphA5(h)): 123%
- % activity (Hck(h) activated): 100%
- % activity (IR(h)): 90%
- % activity (Pim-3(h)): 94%
- % activity (SAPK2a(T106M)(h)): 100%
- % activity (TSSK2(h)): 91%
